From patent publication US20180244779A1 (KADMON, published 2018)

T1: mPD-1-Fc (murine, UniProt Q02242 25-167, limits assumed)
T1 construct: also called murine PD-1; not shown: Fc part
T1 sequence (looked up): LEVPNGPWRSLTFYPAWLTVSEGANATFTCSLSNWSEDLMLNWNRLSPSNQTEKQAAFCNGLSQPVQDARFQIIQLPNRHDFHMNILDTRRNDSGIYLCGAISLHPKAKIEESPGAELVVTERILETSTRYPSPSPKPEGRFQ


Legend:
hPD-1-Fc = target: T2, hPD-1-Fc (human, UniProt Q15116 25-167, limits assumed); experiment: dose-response ELISA, immobilized hPD-1-Fc
T2 construct: It was immobilized on the ELISA plate; also called soluble human PD-1-Fc; not shown: Fc part
Method: (§1) The binding activity of the five antibodies was examined using dose-response ELISA. The serially diluted antibodies were added to immobilized hPD-1-Fc and detected by HRP conjugated anti-hIgG Fab specific antibody. The OD450 reading was plotted vs. log antibody concentration using GraphPad Prism6. EC50 was calculated by using “dose-response” (stimulation) variable slope (four parameters)” program. The antibodies were also added to immobilized mPD-1-Fc and other Fc-fusions to determine specificity for hPD-1-Fc and to immobilized anti-human IgG fc specific antibody (anti-hFc Ab) to check the accuracy of the concentration measurement.

mPD-1-Fc = target: T1, mPD-1-Fc; experiment: dose-response ELISA, immobilized mPD-1-Fc
Method: as §1

T2 sequence (Q15116 25-167 limits assumed): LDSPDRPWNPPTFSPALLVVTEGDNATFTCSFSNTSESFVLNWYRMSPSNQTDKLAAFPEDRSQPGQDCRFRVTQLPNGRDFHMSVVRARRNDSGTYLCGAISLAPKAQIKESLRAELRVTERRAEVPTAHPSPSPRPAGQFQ

| Binder | binding result (hPD-1-Fc) | binding result (mPD-1-Fc) |
| --- | --- | --- |
| R3D6 (antibody, V domains shown) VH: EVQLLESGGGLVQPGGSLRLSCAASGFTFSDYNMAWVRQAPGKGLEWVSSIGPSGGNTHYADSVKGRFTISRDNSKNTLYLQMNSLRAEDMAVYYCARERVEYYYYGMDVWGKGTTVTVSS VL: QSALTQAPSVSVAPGQTARITCGGDNIESLSVHWYQQKPGQAPVLVVYDDADRPSGTPERFSGSNSGNTATLTINRAEAGDEADYYCQVWDYSSDVVVFGGGTTLTVLG | binds |  |
| R3A2 (antibody, V domains shown) VH: EVQLLESGGGLVQPGGSLRLSCAASGFTFSWYSMLWVRQAPGKGLEWVSRIYPSGGFTYYADSVKGRFTISRDNSKNTLYLQMNSLRAEDTAVYYCARVIDIVGATGRLQHGMDVWGQGTTVTVSS VL: QYELTQPPSVSVAPGQTAKITCGGNNIGSKSVNWYQQKTGQAPVLVVHDDSDRPSGIPERLSGSNSGNTATLTISRAEAGDEADYYCQVWDSVSDHYVFGTGTKVTVLG | binds |  |

Continued, values first:

| binding result (hPD-1-Fc) | binding result (mPD-1-Fc) | Binder |
| --- | --- | --- |
| binds |  | R3A1 (antibody, V domains shown) VH: EVQLLESGGGLVQPGGSLRLSCAASGFTFSRYHMMWVRQAPGKGLEWVSSIYPSGGYTYYADSVKGRFTISRDNSKNTLYLQMNSLRAEDTAVYYCAREYFSGPDYWGQGTLVTVSS VL: DIQMTQSPSTLSASVGDRVTITCRASQKISRWLAWYQQTPGKAPKLLIYRASDLESGVPSRFSGSGSGTEFTLTISSLQPDDFATYYCQQYNTYPYTFGQGTKLEIKR |
| binds | binds | R4B3 (antibody, V domains shown) VH: EVQLLESGGGLVQPGGSLRLSCAASGFTFSYYWMSWVRQAPGKGLEWVSYISPSGGMTKYADSVKGRFTISRDNSKNTLYLQMNSLRAEDTAVYYCASASYDYVWGIYHYDVFDIWGQGTMVTVSS VL: DIQMTQSPSSVSASVGDRVTITCRASQGISSWLAWYQQKPGKAPKLLIYAASSLQSGVPSRFSGSGSGTDFTLTISSLQPEDFATYYCQQANSFPLTFGGGTKVEIKR |
